# Results reported in the DeepSol protein solubility set.
# Test: soluble on expression in E. coli; label from the status in PepcDB or PDB records
row,Sequence,soluble on expression in E. coli
1,MGSDKIHHHHHHMENDFPLKGKTVLVTRNKAQAASFQQKVEALGGKAVLTSLITFRRALPNDVAEQVREDLAAPGWLVFTSVNGADFFFSYLKENQLILPAHKKIAAVGEKTARRLKMHNVSVDVMPQEYIAEQLADALKQHAEPGETITVMKGNLSRDVIKQELVPLGFEVKEWVLYETIPDEEGIEALKDAAGQYSFDYVTFTSSSTVHTFMHVLGEELKKWKANGTACISIGPLTNDALLTYGITSHTPDTFTIDGMLELMCSMSREEERI,not soluble
2,MGSDKIHHHHHHMEPIMRNPEDALLDSWHQNAQAWIDAVRHGAIESRRQVTDQAILLAILGRQPERVLDLGCGEGWLLRALADRGIEAVGVDGDRTLVDAARAAGAGEVHLASYAQLAEAKVPVGKDYDLICANFALLHQDIIELLSAMRTLLVPGGALVIQTLHPWSVADGDYQDGWREESFAGFAGDWQPMPWYFRTLASWLNALDMAGLRLVSLQEPQHPQSAVPQSLLMVAERH,not soluble
3,MGSDKIHHHHHHMEPTFQPSRSAIPVLSVSGVGKTYAEPVLADVTLTLAPGEALALTGENGAGKSTLSKIIGGLVDPTTGTMQLGGQAYAPASRTQAEALGVRMVMQELNLLPTLTVAENLFLNRLPRRFGIIDRARLHDDAQAAMARVGLDAIDPDTPVGALGIGHQQMVEIARNLIGDCRVLILDEPTAMLTAREVELLFEQIDRLKAHGVAIVYISHRLDELARVAERVAVLRDGRLVHVGDMAATTSDGLVTLMVGREIGEHIDLGPRRIGAPRLAVSGMTRGTAVQDVSLEVRSGEIFGISGLIGAGRTELLRLIYGADTPDAGMISVGDPLKPARIASPVDAVRHGIALITEDRKGEGLLLSQSVTSNVSLGQLEQLARGGIVNTARETALAEQQIDALRIRTHGAAQPVGELSGGNQQKVVIGRWLARDMGVLLFDEPTRGIDVGAKFEIYTLMGALARDGRALVVVSSDLRELMLICDRIGVMSAGRMTAVFERGNWTQDALLAAAFAGFGRDALPEGARHLDAQAAPRAASGTSTTGRQQ,not soluble
4,MGSDKIHHHHHHMERLPTTPHDAVFRQMLMQKEVARDFLAIHMPEDFLAICDLDSLKLESGSFVEDNLRSRYSDILYSLHTQHGPGYVYALIEHQSKSDRLMAFRLMRYAIAAMQRHLDAGHDTLPLVVPILFYHGPESPWPYSLNWHNMFVKPDMAKALYSRDFALVDLTTMPDNQLLQHRRIAMLELLQKHIRQRDLSELLDPLITLLTQDHLTDAQLSVLINYMLKAGNAAEPGALIRQLAQGAPQYKEQLMTIAEWLEEKGRTEGLQKGLQKGLEQGLAQGREAEARAIARKMLANGLEPGLIASVTGITPEELSTLSH,not soluble
5,MGSDKIHHHHHHMESIENSYGRLLLESQLPDSAKQLAQPLKSVVILRGKMICQRCHYQLDEEARLPSGAYYCRFCLVFGRNQSDKLLYAIPPMHFPKGNYLVWGGQLTAYQEMISQQLLINMQNQKTTLVHAVTGAGKTEMIYAAIEAVINTGGWVCIASPRVDVCVEVATRLSQAFSCSICLMHAESLPYQRAPIIVATTHQLLKFHKAFDLLIIDEVDAFPFVNNIQLHYAASQALKEGGAKILLTATSTRTLERKVNKGEVVKLTLARRFHNRPLVIPKFIRSFNLFKMIHRQKLPLKILKYLKKQRKTGYPLLIFLPTIIMAESVTAILKELLPAEQIACVSSQSQNRKEDITAFRQGKKTILITTSILERGVTFPQIDVFVLGSHHRVYSSQSLVQIAGRVGRSIDRPDGTLYFFHEGISKAMLLARKEIKEMNYKGYSHDLSTMSTN,not soluble
6,MGSDKIHHHHHHMETRNLQRNPILLVHGITDTEAVFDQMAAYLRQMGWTVYTLNLVPNNGEAPLNVLAQQVADYVAANITPEQPFDLVGFSMGGIVSRYYVQRLGGISHVQRFVTISSPHYGTVIAYASQRPGCVQMRPNSLFLQDLNHDVQMLEELNFTSIWTPYDLMIVPTHSSKMPVGKELSIPVALHSWMLRDVRSIEAVAAALAEPINCDRRFEYIPNSSIHN,not soluble
7,MGSDKIHHHHHHMEYGHHARPDSKRPLDEGSPAAAGLTSKKANEALTRNRELTTVLVKNLPKSYNQNKVYKYFKHCGPIIHVDVADSLKKNFRFARIEFARYDGALAAITKTHKVVGQNEIIVSHLTECTLWMTNFPPSYTQRNIRDLLQDINVVALSIRLPSLRFNTSRRFAYIDVTSKEDARYCVEKLNGLKIEGYTLVTKVSNPLEKSKRTDSATLEGREIMIRNLSTELLDENLLRESFEGFGSIEKINIPAGQKEHSFNNCCAFMVFENKDSAERALQMNRSLLGNREISVSLADKKPFLERNEVKRLLASRNSKELETLICLFPLSDKVSPSLICQFLQEEIHINEKDIRKILLVSDFNGAIIIFRDSKFAAKMLMILNGSQFQGKVIRSGTINDMKRYYNNQQNHSMKHVKPSCINMMEKGPNLQVKKKIPDKQEQMSNDDFRKMFLGE,not soluble
8,MGSDKIHHHHHHMFALAASNMILRGDGKANLHQSSCFMTDFQDLIKNPKPETGLKRPNVGFLNPPYAQSKSDAELHELYFVKEMLDMLAEGGTGIAIIPVSCVIAPSKAKSEIVKYHRLKAVMSMPSELFYPVGTVTCIVVFEAHKPHFQTVVIDPDTQEEISTKKACRKTWFGYWRDDGFEKTKHLGRIDLYDRWQGIKARWLEHYLNNEVHTGESVTAFVTDNDEWVAEAYLETDYSKITRADFEQVVREFALFQLLGAEVGPTENLDNESYEDDDNNDFGDDE,not soluble
9,MGSDKIHHHHHHMFDLHVHSVFSDGELIPSEIARRMYAAGNKGFAITDHADFTNIQDILAKLTRIKEHMESYEAKFLVGVEITHVPPSLIGKAVELAWKEGAEIVVVHGETVAEPVKEGTNLAALSEEITILAHPGIMSEEEAELARENGIYVEISARRGHCLGNGRVARLAEKYGFELVINTDMHSPSDIINDSTAERILKGAGVKEWKSVLENNEKLFRKLRK,not soluble
10,MGSDKIHHHHHHMFDVAARSGSFKQASQELGVTQSAVTRQIQTLEEQLEVRLFQRDNRVHSLTPVGLELAPQIEQIFEQLERTIERTRNLSDNTTTQLTVAISSERLRFWLAAKLADFHSLYPHIQLSFSRCNEYFINESAAEMASAIQHQSWDLAIGYGKVTDKHIQSIVLQKNQMLPVSAIKTNNSPFQLPWLINPENPDHQAMLKTYSQQLKSTRIIHCNDVQMSLDLSSAEQAVALIDSSLITPGLSNLKVYNDSAQPCQYPLSIYYRKRQRQPVALVAFIKWLQMIIS,not soluble
11,MGSDKIHHHHHHMFDWNDLRFFLELQRSGRLLTAAKRLNTTHSTVARHIESIEQSLGTALFVQHAQGYELTPSGQALLKHAEAMENVALLAQEEITQAITPLGKIRLGVTEGIGIMFFTPRMNALFERYPGLEVELVAVPRFVSILNREAEISIHLERPNADLLITRKLTDYRLALYASQAYLDRAPPLRHREDLARHSWIGYVDDLLFSQELLFLNSFCRVPNVVFRSTSVIAQQAAARAGLGIAVLPNYMARHDPTLVRVLPGETIQRSYWICTRRELHKSVRLRVVWDYLLALCAAEQSELLAE,not soluble
12,MGSDKIHHHHHHMFEPFPGNYVWNLGINLALIAGGNHGELDEVCRPVREAAKAGADAGSALLFDSWIAVADQVTRNAERDEAEGFLLSAGAKYLRASGYYLGAERLQSRDYAPRWVAYDKGLELYHKGSALSGLHVDKVEIPYEGSSYPAIFVHDGSGTPRPTLVSVNGLDSMKEQVNMAGHGAVNLARGMNTLFLDQPGTGEAIRKRNLPAVFDAERWGSPAFDYLLTRSDVIHSQIGIFGLSFGGYHAPRIAANDPRYALCAVMGANHVWGQRQRERVANEGENPVPHYWDHVMWVFGIDDQAAFLEYADQITLDGQVEKIRVPFLITHGENDRQIPAYNAQMSYDQAVNSPKRTLRIFTRADFEVEHCGADNGTGMRDYIADWCAQTFAEMAGNKG,not soluble
13,MGSDKIHHHHHHMFERDNREDEAAELVTLAAKLKALMKPDVARRVEPDLEALLEAEGLAMRPGPRPMIDTDLVQELRQAMITCSKVKLRYRNRRTRQANERIVHPYAFLHGHRNYLIAWHEHPKANKVALFALPHIEAVDATGEPFVRDPGFQLQDFAARSFGLFQDEPFQTAWKFAPDAADDAAEFLFHPSQAQERLPDGSLIVRFVAASELEMAWHLYAWGDKVEVLEPQKLAEMVNPGRVAWPALP,not soluble
